{
  "source": "paper PMC8715002",
  "about": "“Biochemical and Structural Characterization of a Novel Bacterial Tannase From Lachnospiraceae bacterium in Ruminant Gastrointestinal Tract” (Frontiers in Bioengineering and Biotechnology, 2021)",
  "assay_in_all_cases": "purified protein",
  "assay_type_in_all_cases": "biochemical, Lachnospiraceae bacterium",
  "settings_in_all_cases": "pH 7.0, 50 °C, 0.2–5 mM substrate",
  "key": {"[1]": {"system": "T1, CCCCCCCCCCCCOC(=O)c1cc(O)c(O)c(O)c1", "T1 construct": "about 68 kDa, monomer; catalytic Ser205/Asp582/His614; forward primer reads MSQSTATR; signal peptide not discussed"}, "[2]": {"system": "T2, CCCOC(=O)c1cc(O)c(O)c(O)c1", "T2 construct": "about 68 kDa, monomer; catalytic Ser205/Asp582/His614; forward primer reads MSQSTATR; signal peptide not discussed"}, "[3]": {"system": "T3, CCOC(=O)c1cc(O)c(O)c(O)c1", "T3 construct": "about 68 kDa, monomer; catalytic Ser205/Asp582/His614; forward primer reads MSQSTATR; signal peptide not discussed"}, "COC(=O)c1cc(O)c(O)c(O)c1": {"system": "T4, COC(=O)c1cc(O)c(O)c(O)c1", "T4 construct": "about 68 kDa, monomer; catalytic Ser205/Asp582/His614; forward primer reads MSQSTATR; signal peptide not discussed"}},
  "data": [
    {"substance": "TanALb (tannase from Lachnospiraceae bacterium) (Lachnospiraceae bacterium)", "values": [
      {"measurement": "Km", "setting": "[1]", "value": "1.8 ± 0.26", "unit": "mM"},
      {"measurement": "kcat", "setting": "[1]", "value": "24.6 ± 5.2", "unit": "s⁻¹"},
      {"measurement": "kcat/Km", "setting": "[1]", "value": "15300 ± 2100", "unit": "M⁻¹ s⁻¹"},
      {"measurement": "Km", "setting": "[2]", "value": "2.0 ± 0.22", "unit": "mM"},
      {"measurement": "kcat", "setting": "[2]", "value": "44.2 ± 3.6", "unit": "s⁻¹"},
      {"measurement": "kcat/Km", "setting": "[2]", "value": "24500 ± 4000", "unit": "M⁻¹ s⁻¹"},
      {"measurement": "Km", "setting": "[3]", "value": "2.6 ± 0.19", "unit": "mM"},
      {"measurement": "kcat", "setting": "[3]", "value": "78.8 ± 10.4", "unit": "s⁻¹"},
      {"measurement": "kcat/Km", "setting": "[3]", "value": "33300 ± 7300", "unit": "M⁻¹ s⁻¹"},
      {"measurement": "Km", "setting": "COC(=O)c1cc(O)c(O)c(O)c1", "value": "2.8 ± 0.35", "unit": "mM"},
      {"measurement": "kcat", "setting": "COC(=O)c1cc(O)c(O)c(O)c1", "value": "82.5 ± 6.3", "unit": "s⁻¹"},
      {"measurement": "kcat/Km", "setting": "COC(=O)c1cc(O)c(O)c(O)c1", "value": "36400 ± 4400", "unit": "M⁻¹ s⁻¹"}
    ]}
  ]
}
